Results reported in the supplement of paper PMC11865577.

How the values were obtained:
Assay in all cases: pull-down binding Z-score (relative to library population); higher = stronger binding
Settings in all cases: RNA library: Library-2
[1] = tested on: TO-3-N3 (biotin conjugate)
Method in brief: (§1)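 An RNA library (1 μg) carrying a Cy5 or Cy3 end label was heat-folded in phosphate/NaCl/KCl buffer, then incubated for 60 min at 25 °C with streptavidin beads loaded with 100 pmol of biotin-conjugated small molecule. The beads were washed three times, and bound RNA was released in hot SDS and hybridised to a DNA barcode microarray for 20 h at 55.5 °C. Each binding score was derived by subtracting the signal from beads without compound, averaging the barcoded replicate probes after removing the highest and lowest, and expressing the result as a Z-score relative to the library mean and standard deviation.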

[2] = tested on: TO-3-N3-2 (biotin conjugate)
Method in brief: as §1

[3] = tested on: TO-N3 (biotin conjugate)
Method in brief: as §1

[4] = tested on: TO-N3-2 (biotin conjugate)
Method in brief: as §1

Row | Sequence | pull-down binding Z-score [1] | pull-down binding Z-score [2] | pull-down binding Z-score [3] | pull-down binding Z-score [4]
1 | GGAAGACCUUAAAUUCCCUCGAGGACAAGGCGUUCC | -0.756 | -0.381 | -0.658 | -0.19
2 | GGAAGAGACAGGUACGUUAAUAGUUAAUAGCGUACUUCUUUUUC | -0.226 | -0.193 | -0.585 | -0.494
3 | GGAAUAAGUACGAUACUUACCUG [U1snRNP5ss-5] | -0.215 | 0.089 | 0.464 | 1.56
4 | GGAAUAAGUAUGAUACUUACCUG [U1snRNP5ss-6] | 1.69 | 0.331 | 1.81 | 1.18
5 | GGAAUGGAUCCC [IAV_invivo_NP_5_Motif_9+IAV_invivo_NP_5_Motif_9] | -0.119 | -0.0967 | -0.323 | -0.367
6 | GGAAUUGCAAUGUCGAUAGAUAUCCUGCUAAUUCC [DMSMaPseq_invitro_SARS-CoV-2_Motif_342] | -0.203 | -0.418 | -0.229 | -0.212
7 | GGAAUUGUGUUAAUUGUGAUACAUUCU [SHAPE_invitro_SARS-CoV-2_Motif_150] | -0.83 | -0.388 | -0.949 | -0.855
8 | GGAAUUUGAACC [IAV_invivo_PB2_1_Motif_28+IAV_invivo_PB2_1_Motif_28] | 0.293 | -0.147 | 0.0885 | -0.514
9 | GGACAAUUCACCUAAUUUAGCAUGGCCUCUUAUUGUAACAGCUUUAAGGGCCAAUUCUGCUGUCAAAUUACAGAAUAAUGAGCUUAGUCC | -0.496 | -0.176 | -0.563 | -0.485
10 | GGACCAGGAACUAAUCAGACAAGGAACUGAUUACAAACAUUGGCC [DMSMaPseq_invitro_SARS-CoV-2_Motif_522] | 1.03 | 0.134 | 1.01 | 0.031
11 | GGACCUGAGCGCACCUGUUGUCU [SHAPE_invivo_SARS-CoV-2_Motif_351] | 0.863 | 0.645 | 1.58 | 1.67
12 | GGACUUGAAAGAGCC | -0.384 | -0.442 | -0.45 | -0.676
13 | GGAGAAAAUUCC [IAV_invivo_PA_3_Motif_17+IAV_invivo_PA_3_Motif_17] | -0.517 | -0.333 | -0.797 | -0.726
14 | GGAGAAGAACCC [IAV_invivo_PB2_1_Motif_3+IAV_invivo_PB2_1_Motif_3] | -0.254 | -0.0996 | -0.17 | 0.0437
15 | GGAGACAGGUGGUUUCUCAAUCGAUUUACCACAACUCU [SHAPE_invivo_SARS-CoV-2_Motif_209] | -0.078 | -0.326 | -0.19 | -0.516
16 | GGAGAGUGUGGACACUUAUGAAUGUCUUGACACUCGUU [SHAPE_invitro_SARS-CoV-2_Motif_211] | 0.331 | 0.121 | 0.586 | 0.364
17 | GGAGAGUGUUCAGACAUUCUUU [SHAPE_invitro_SARS-CoV-2_Motif_44] | -0.535 | -0.361 | -0.508 | -0.602
18 | GGAGAUGAGGCGUUGCCUCCUCC [IAV_invivo_PA_3_Motif_24+IAV_invivo_PA_3_Motif_24] | -0.646 | -0.663 | -1.01 | -0.275
19 | GGAGGAGGAGGAGGAGGA [G4_r(GGA)6] | 4.17 | 7.36 | 2.99 | -1.68
20 | GGAGGAGGAGGAGGAGGAGGAGGAGGAGGAGGAGGAGGAGGAGGAGGA [G4_r(GGA)16] | 7.15 | 8.95 | 5.89 | 3.35
21 | GGAGGGCCUUCUACGGAAGGAGUGCC [IAV_invivo_M1_M2_7_Motif_16+IAV_invivo_M1_M2_7_Motif_16] | 0.296 | -0.0132 | 0.646 | 1.57
22 | GGAGGUUGCUAGUCAGGCUAGACAAAUGGUGCAAGCGAUGAGAACCAUUGGAACUCAUCCUAGCUCCAGUGCUGGUCUGAAAAAUGAUCUUC [IAV_invivo_M1_M2_7_Motif_15+IAV_invivo_M1_M2_7_Motif_15] | -0.55 | -0.816 | -0.195 | 0.839
23 | GGAGUAAGUCUGAUACUUACCUG [U1snRNP5ss-1] | -0.0269 | -0.152 | 0.599 | 0.773
24 | GGAGUUCAAAUUGCUUCC [IAV_invivo_NP_5_Motif_19+IAV_invivo_NP_5_Motif_19] | -0.502 | -0.404 | -0.561 | -0.604
25 | GGAUCCCGACUGGCGAGAGCCAGGUAACGAAUGGAUCC [MG-aptamer] | -0.00379 | -0.524 | 0.277 | 2.4
26 | GGAUGAGAGAACUCAUCC [IAV_invivo_NP_5_Motif_6+IAV_invivo_NP_5_Motif_6] | -0.302 | -0.323 | -0.724 | -0.939
27 | GGAUGGUCUUCAAUCC [IAV_invivo_PB1_2_Motif_23+IAV_invivo_PB1_2_Motif_23] | -0.481 | -0.137 | -0.47 | -0.515
